# Experimental data published in patent publication EP4818204A1 (Nanjing Leads Biolabs Co., Ltd., dated 2026).
# T1: human Activin B protein (human, UniProt P09529 293-407)
# T1 construct: Bought; Activin B is by nature a dimer of inhibin beta B chains
# T1 sequence (looked up): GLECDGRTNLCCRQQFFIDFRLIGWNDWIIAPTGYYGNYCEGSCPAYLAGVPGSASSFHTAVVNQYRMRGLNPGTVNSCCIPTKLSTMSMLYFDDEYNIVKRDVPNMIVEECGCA
# T2: human GDF3 protein (human, UniProt Q9NR23 251-364, limits assumed)
# T2 construct: Bought
# T2 sequence (looked up): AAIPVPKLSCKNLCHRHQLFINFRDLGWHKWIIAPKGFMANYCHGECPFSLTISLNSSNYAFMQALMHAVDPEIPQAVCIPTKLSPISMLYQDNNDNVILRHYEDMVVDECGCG
# T3: human Activin A protein (human, UniProt P08476 311-426)
# T3 construct: Bought; Activin A is by nature a dimer of inhibin beta A chains
# T3 sequence (looked up): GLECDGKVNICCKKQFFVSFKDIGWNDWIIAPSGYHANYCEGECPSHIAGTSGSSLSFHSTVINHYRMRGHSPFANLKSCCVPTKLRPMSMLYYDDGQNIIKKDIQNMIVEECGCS
# T4: human GDF11 protein (human, UniProt O95390 299-407)
# T4 construct: Bought
# T4 sequence (looked up): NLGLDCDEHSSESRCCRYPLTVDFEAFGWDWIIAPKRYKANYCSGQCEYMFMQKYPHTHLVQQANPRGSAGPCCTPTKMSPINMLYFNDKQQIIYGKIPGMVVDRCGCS
# T5: human GDF2 protein (human, UniProt Q9UK05 320-429)
# T5 construct: Bought
# T5 sequence (looked up): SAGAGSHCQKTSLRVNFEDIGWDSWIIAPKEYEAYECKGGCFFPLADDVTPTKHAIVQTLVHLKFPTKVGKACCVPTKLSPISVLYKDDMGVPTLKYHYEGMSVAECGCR
# T6: human GDF1 protein (human, UniProt P27539 254-372, limits assumed)
# T6 construct: Bought
# T6 sequence (looked up): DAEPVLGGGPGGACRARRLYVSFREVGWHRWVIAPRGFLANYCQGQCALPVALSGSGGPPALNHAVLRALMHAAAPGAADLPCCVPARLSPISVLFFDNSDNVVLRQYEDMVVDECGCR
# T7: human BMP4 protein (human, UniProt P12644 293-408)
# T7 construct: Bought
# T7 sequence (looked up): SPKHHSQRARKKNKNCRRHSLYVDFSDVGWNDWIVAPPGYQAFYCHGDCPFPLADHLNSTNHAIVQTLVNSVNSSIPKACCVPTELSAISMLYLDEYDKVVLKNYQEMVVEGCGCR
# T8: human GFRα1 protein (human, UniProt P56159 25-429, limits assumed)
# T8 construct: Bought
# T8 sequence (looked up): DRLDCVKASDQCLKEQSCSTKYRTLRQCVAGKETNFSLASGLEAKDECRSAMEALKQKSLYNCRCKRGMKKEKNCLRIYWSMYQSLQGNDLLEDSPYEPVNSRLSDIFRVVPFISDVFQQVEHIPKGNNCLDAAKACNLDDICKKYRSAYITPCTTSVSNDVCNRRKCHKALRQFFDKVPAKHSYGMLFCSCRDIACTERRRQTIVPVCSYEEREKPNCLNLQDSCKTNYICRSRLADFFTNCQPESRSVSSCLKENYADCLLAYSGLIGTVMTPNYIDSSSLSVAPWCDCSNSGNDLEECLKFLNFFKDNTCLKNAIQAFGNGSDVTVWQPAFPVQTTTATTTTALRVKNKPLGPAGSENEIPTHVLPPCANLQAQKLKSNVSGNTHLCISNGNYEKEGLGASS
# T9: Human GDF15 protein (human, UniProt Q99988 197-308)
# T9 construct: Natural GDF15 is said to be a disulfide-linked homodimer; also called Human-GDF15-his
# T9 sequence: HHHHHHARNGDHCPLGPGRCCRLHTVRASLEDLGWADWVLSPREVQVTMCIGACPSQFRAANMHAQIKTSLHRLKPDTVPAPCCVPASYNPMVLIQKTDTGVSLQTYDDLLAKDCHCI
# T10: Cynomolgus monkey GDF15 protein (cynomolgus monkey, UniProt G7PWZ3 193-308)
# T10 construct: Bought protein (Kactus Biosystems GDF-CE115); also called Cynomolgus GDF15 protein; Cynomolgus-GDF15
# T10 sequence: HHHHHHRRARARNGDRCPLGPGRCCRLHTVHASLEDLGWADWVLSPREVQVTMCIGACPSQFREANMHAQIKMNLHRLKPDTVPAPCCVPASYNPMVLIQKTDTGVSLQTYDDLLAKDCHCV
# T11: Mouse GDF15 protein (mouse, UniProt Q9Z0J7 189-303)
# T11 sequence: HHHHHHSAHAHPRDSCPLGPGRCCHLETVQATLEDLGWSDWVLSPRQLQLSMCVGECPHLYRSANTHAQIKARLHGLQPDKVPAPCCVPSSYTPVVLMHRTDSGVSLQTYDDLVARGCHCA
# What was measured:
# human Activin B protein [1] = molecular target: T1, human Activin B protein; assay: ELISA, coated protein, antibody at 4 µg/mL
# human GDF3 protein [2] = molecular target: T2, human GDF3 protein; assay: ELISA, coated protein, antibody at 4 µg/mL
# human TGFβ1 protein [3] = molecular target: T12, human TGFβ1 protein (human, UniProt P01137 279-390); assay: ELISA, coated protein, antibody at 4 µg/mL
# T12 construct: Bought
# T12 sequence (P01137 279-390 limits assumed): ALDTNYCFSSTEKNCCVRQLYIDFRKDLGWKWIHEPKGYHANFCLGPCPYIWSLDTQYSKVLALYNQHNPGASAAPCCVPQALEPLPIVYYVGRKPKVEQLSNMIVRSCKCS
# human BMP2 protein = molecular target: T13, human BMP2 protein (human, UniProt P12643 283-396); assay: ELISA, coated protein
# T13 construct: Bought
# T13 sequence (P12643 283-396 limits assumed): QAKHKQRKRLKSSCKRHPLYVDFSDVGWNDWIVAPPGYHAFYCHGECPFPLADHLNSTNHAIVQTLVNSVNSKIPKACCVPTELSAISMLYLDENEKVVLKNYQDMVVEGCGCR
# human Activin A protein = molecular target: T3, human Activin A protein; assay: ELISA, coated protein
# human GDF11 protein = molecular target: T4, human GDF11 protein; assay: ELISA, coated protein
# human GDF2 protein = molecular target: T5, human GDF2 protein; assay: ELISA, coated protein
# human GDF1 protein = molecular target: T6, human GDF1 protein; assay: ELISA, coated protein
# human BMP4 protein = molecular target: T7, human BMP4 protein; assay: ELISA, coated protein
# human Activin B protein [4] = molecular target: T1, human Activin B protein; assay: ELISA, coated protein
# human GDF3 protein [5] = molecular target: T2, human GDF3 protein; assay: ELISA, coated protein
# human TGFβ1 protein [6] = molecular target: T12, human TGFβ1 protein; assay: ELISA, coated protein
# human GFRα1 protein = molecular target: T8, human GFRα1 protein; assay: ELISA, coated protein
# [7] = molecular target: human GDF8 protein (human) (UniProt O14793); assay: ELISA, coated protein, antibody at 4 µg/mL
# [8] = molecular target: human AMH protein (human) (UniProt P03971); assay: ELISA, coated protein, antibody at 4 µg/mL
# Human GDF15 protein = molecular target: T9, Human GDF15 protein; assay: BLI (Fortebio Octet), antibody on AHC sensor, GDF15 as analyte, 1:1 model
# [9] = molecular target: T10, Cynomolgus monkey GDF15 protein; assay: as above
# Mouse GDF15 protein = molecular target: T11, Mouse GDF15 protein; assay: as above
binder,measurement,setting,value
"Hu19C4C7 (antibody, human IgG1, kappa, Humanized form of murine 19C4C7; human IgG1 constant region with L234A, L235A, G237A and kappa light chain constant region; also called hu19C4C7-IgG1-mut(L234A,L235A,G237A)) heavy: QVQLVQSGAEVKKPGSSVKVSCKASGYSFTGYIMNWVRQAPGQSLEWMGDIDPYYGGPNYNQKFQGRVTITVDKSTSTAYMELSSLRSEDTAVYYCSRRDYNYGSFAYWGQGTLVTVSSASTKGPSVFPLAPSSKSTSGGTAALGCLVKDYFPEPVTVSWNSGALTSGVHTFPAVLQSSGLYSLSSVVTVPSSSLGTQTYICNVNHKPSNTKVDKKVEPKSCDKTHTCPPCPAPEAAGAPSVFLFPPKPKDTLMISRTPEVTCVVVDVSHEDPEVKFNWYVDGVEVHNAKTKPREEQYNSTYRVVSVLTVLHQDWLNGKEYKCKVSNKALPAPIEKTISKAKGQPREPQVYTLPPSREEMTKNQVSLTCLVKGFYPSDIAVEWESNGQPENNYKTTPPVLDSDGSFFLYSKLTVDKSRWQQGNVFSCSVMHEALHNHYTQKSLSLSPGK light: QIVLTQSPATLSLSPGERATLSCRASSSVNYMHWYQQKPGQAPRPLIYATSNLATGIPARFSGSGSGTDYTLTISSLEPEDFAVYYCQQWSDNPPTFGQGTKLEIKRTVAAPSVFIFPPSDEQLKSGTASVVCLLNNFYPREAKVQWKVDNALQSGNSQESVTEQDSKDSTYSLSSTLTLSKADYEKHKVYACEVTHQGLSSPVTKSFNRGEC",OD value,human Activin B protein [1],0.136 OD 450 nm-620 nm
same,OD value,human GDF3 protein [2],0.0418 OD 450 nm-620 nm
same,OD value,human TGFβ1 protein [3],0.0437 OD 450 nm-620 nm
same,binding result,human BMP2 protein,no binding (tested: 4 µg/mL)
same,binding result,human Activin A protein,no binding (tested: 4 µg/mL)
same,binding result,human GDF11 protein,no binding (tested: 4 µg/mL)
same,binding result,human GDF2 protein,no binding (tested: 4 µg/mL)
same,binding result,human GDF1 protein,no binding (tested: 4 µg/mL)
same,binding result,human BMP4 protein,no binding (tested: 4 µg/mL)
same,binding result,human Activin B protein [4],no binding (tested: 4 µg/mL)
same,binding result,human GDF3 protein [5],no binding (tested: 4 µg/mL)
same,binding result,human TGFβ1 protein [6],no binding (tested: 4 µg/mL)
same,binding result,human GFRα1 protein,no binding (tested: 4 µg/mL)
same,OD value (OD 450 nm-620 nm),[7],0.0423
same,OD value (OD 450 nm-620 nm),[8],0.0464
same,Kd,Human GDF15 protein,0.0264 nM
same,koff,Human GDF15 protein,2.35e-05 s⁻¹
same,kon,Human GDF15 protein,887000 M⁻¹ s⁻¹
same,Kd,[9],0.312 nM
same,koff,[9],8.24e-05 s⁻¹
same,kon,[9],265000 M⁻¹ s⁻¹
same,Kd,Mouse GDF15 protein,14.9 nM
same,koff,Mouse GDF15 protein,0.00241 s⁻¹
same,kon,Mouse GDF15 protein,162000 M⁻¹ s⁻¹
